According to patent publication US20100009920:

Experiments:
[1] = molecular target: GST-tagged EGFR-DEL2 protein (amino acid 889-1045)
[2] = molecular target: T1, EGFR-DEL4 (amino acid 977-1045) protein
T1 chain: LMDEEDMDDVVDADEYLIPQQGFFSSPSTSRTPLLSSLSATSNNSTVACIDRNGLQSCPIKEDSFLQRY

[3] = molecular target: T2, GST-tagged EGFR-DEL1 (amino acid 692-891)
T2 chain: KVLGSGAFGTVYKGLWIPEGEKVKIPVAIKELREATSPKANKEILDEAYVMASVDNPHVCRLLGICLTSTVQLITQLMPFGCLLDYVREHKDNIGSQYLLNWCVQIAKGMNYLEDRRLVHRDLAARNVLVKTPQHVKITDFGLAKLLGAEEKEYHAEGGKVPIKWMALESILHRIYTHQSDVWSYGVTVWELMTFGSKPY

[4] = molecular target: catalytically-active recombinant GST-tagged human EGFR (active-rhEGFR; Upstate), P00533
[5] = molecular target: GST-tagged EGFR-DEL2 (Y992A) protein
[6] = molecular target: T3, GST-tagged EGFR-DEL3 (amino acid 1046-1186)
T3 chain: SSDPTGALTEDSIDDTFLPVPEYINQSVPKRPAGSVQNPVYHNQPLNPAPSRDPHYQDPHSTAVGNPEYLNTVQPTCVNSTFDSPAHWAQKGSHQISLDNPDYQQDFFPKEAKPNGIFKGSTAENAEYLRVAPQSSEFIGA

B1: purified recombinant His-tagged TTK (protein)
chain: MESEDLSGRELTIDSIMNKVRDIKNKFKNEDLTDELSLNKISADTTDNSGTVNQIMMMANNPEDWLSLLLKLEKNSVPLSDALLNKLIGRYSQAIEALPPDKYGQNESFARIQVRFAELKAIQEPDDARDYFQMARANCKKFAFVHISFAQFELSQGNVKKSKQLLQKAVERGAVPLEMLEIALRNLNLQKKQLLSEEEKKNLSASTVLTAQESFSGSLGHLQNRNNSCDSRGQTTKARFLYGENMPPQDAEIGYRNSLRQTNKTKQSCPFGRVPVNLLNSPDCDVKTDDSVVPCFMKRQTSRSECRDLVVPGSKPSGNDSCELRNLKSVQNSHFKEPLVSDEKSSELIITDSITLKNKTESSLLAKLEETKEYQEPEVPESNQKQWQSKRKSECINQNPAASSNHWQIPELARKVNTEQKHTTFEQPVFSVSKQSPPISTSKWFDPKSICKTPSSNTLDDYMSCFRTPVVKNDFPPACQLSTPYGQPACFQQQQHQILATPLQNLQVLASSSANECISVKGRIYSILKQIGSGGSSKVFQVLNEKKQIYAIKYVNLEEADNQTLDSYRNEIAYLNKLQQHSDKIIRLYDYEITDQYIYMVMECGNIDLNSWLKKKKSIDPWERKSYWKNMLEAVHTIHQHGIVHSDLKPANFLIVDGMLKLIDFGIANQMQPDTTSVVKDSQVGTVNYMPPEAIKDMSSSRENGKSKSKISPKSDVWSLGCILYYMTYGKTPFQQIINQISKLHAIIDPNHEIEFPDIPEKDLQDVLKCCLKRDPKQRISIPELLAHPYVQIQTHPVNQMAKGTTEEMKYVLGQLVGLNSPNSILKAAKTLYEHYSGGESHNSSSSKTFEKKRGKK
[1]
  phosphorylation of EGFR Tyr-992 (in vitro kinase assay, western blot): Phosphorylation of EGFR Tyr-992 in GST-tagged EGFR-DEL2 protein (amino acid 889-1045) was promoted in a TTK-dose dependent manner
  phosphorylation site by MALDI tandem mass spectrometry after in vitro phosphorylation: phosphorylation of EGFR Ser-967 was identified (data not shown)
[2]
  phosphorylation of EGFR Tyr-992 (in vitro kinase assay): EGFR-DEL4 (amino acid 977-1045) protein was not phosphorylated at Tyr-992 (data not shown)
[3]
  tyrosine phosphorylation (in vitro kinase assay, western blot): other tyrosine residues in GST-tagged EGFR-DEL1 (amino acid 692-891), EGFR-DEL2 and EGFR-DEL3 (amino acid 1046-1186) proteins were not phosphorylated at all
[4]
  tyrosine phosphorylation of active-rhEGFR (in vitro kinase assay, anti-phospho-tyrosine western blot): the phosphorylation of active-rhEGFR by TTK was not inhibited by AG1478
[5]
  32P incorporation ([gamma-32P] ATP in vitro kinase assay, autoradiography): This mutation remarkably reduced the intensity of lower-band, but did not reduce that of upper-band
[6]
  tyrosine phosphorylation (in vitro kinase assay, western blot): other tyrosine residues in GST-tagged EGFR-DEL1 (amino acid 692-891), EGFR-DEL2 and EGFR-DEL3 (amino acid 1046-1186) proteins were not phosphorylated at all
